In publication PMC3861047, “Role of Tomato Lipoxygenase D in Wound-Induced Jasmonate Biosynthesis and Plant Immunity to Insect Herbivores”:

Biological target: MBP-SlMYC2 (Solanum lycopersicum, UniProt A0A3Q7HRZ6 1-689)
Assay: EMSA; LightShift Chemiluminescent EMSA kit (Thermo Scientific), acrylamide gel; buffer, salt, pH and temperature not given
Settings: protein: recombinant; tags: N-terminal MBP (pMAL-c2); chain copies: 2; label: biotin (3' end per Methods); blunt

MBP-SlMYC2, sequence (A0A3Q7HRZ6 whole entry): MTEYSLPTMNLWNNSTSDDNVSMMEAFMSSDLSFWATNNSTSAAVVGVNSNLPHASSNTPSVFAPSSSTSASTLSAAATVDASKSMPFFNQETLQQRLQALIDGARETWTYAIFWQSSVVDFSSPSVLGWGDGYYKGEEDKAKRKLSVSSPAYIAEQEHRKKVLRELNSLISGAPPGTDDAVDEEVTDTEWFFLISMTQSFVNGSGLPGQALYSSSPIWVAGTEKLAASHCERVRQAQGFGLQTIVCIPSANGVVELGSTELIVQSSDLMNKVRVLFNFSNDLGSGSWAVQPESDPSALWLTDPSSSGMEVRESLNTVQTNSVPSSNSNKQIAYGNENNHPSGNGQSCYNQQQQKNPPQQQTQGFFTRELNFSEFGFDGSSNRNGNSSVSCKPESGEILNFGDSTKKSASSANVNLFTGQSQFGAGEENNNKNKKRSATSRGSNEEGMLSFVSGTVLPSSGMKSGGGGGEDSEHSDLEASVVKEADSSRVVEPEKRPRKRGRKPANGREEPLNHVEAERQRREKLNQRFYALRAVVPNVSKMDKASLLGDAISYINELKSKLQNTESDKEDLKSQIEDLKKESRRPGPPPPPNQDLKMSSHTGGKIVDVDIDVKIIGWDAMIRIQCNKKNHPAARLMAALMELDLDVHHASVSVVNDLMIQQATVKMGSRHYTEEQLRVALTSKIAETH

B1: TomLoxDpro probe-369 (dsDNA)
DNA 1: TCGGTTTGACTAAATTCCACCATGTGTAAAGCTTGCACTAAAATGAAACC
DNA 2: GGTTTCATTTTAGTGCAAGCTTTACACATGGTGGAATTTAGTCAAACCGA
B1: binds.
